Source: PMC2853136 (Nucleic Acids Research, 2010)

B1: His-tagged RNPC1a (recombinant) (natural protein, UniProt Q9H0Z9-1 1-239, looked up)
chain: MLLQPAPCAPSAGFPRPLAAPGAMHGSQKDTTFTKIFVGGLPYHTTDASLRKYFEGFGDIEEAVVITDRQTGKSRGYGFVTMADRAAAERACKDPNPIIDGRKANVNLAYLGAKPRSLQTGFAIGVQQLHPTLIQRTYGLTPHYIYPPAIVQPSVVIPAAPVPSLSSPYIEYTPASPAYAQYPPATYDQYPYAASPATAASFVGYSYPAAVPQALSAAAPAGTTFVQYQAPQLQPDRMQ

Experiments:
Assay in all cases: pull-down
[1] = molecular target: B1
[2] = molecular target: His-tagged HuR (recombinant) (UniProt Q15717 1-326)
GST-HuR (1–326) = GST-HuR (1–326) (UniProt Q15717 1-326)

Row | binding result [1] | Binder | other results
1 | binds | GST-HuR (134–326) (domain or fragment, UniProt Q15717 134-326, looked up) NSRVLVDQTTGLSRGVAFIRFDKRSEAEEAITSFNGHKPPGSSEPITVKFAANPNQNKNVALLSQLYHSPARRFGGPVHHQAQRFRFSPMGVDHMSGLSGVNVPGNASSGWCIFIYNLGQDADEGILWQMFGPFGAVTNVKVIRDFNTNKCKGFGFVTMTNYEEAAMAIASLNGYRLGDKILQVSFKTNKSHK | 
2 |  | GST-RNPC1a (natural protein, UniProt Q9H0Z9-1 1-239, looked up) MLLQPAPCAPSAGFPRPLAAPGAMHGSQKDTTFTKIFVGGLPYHTTDASLRKYFEGFGDIEEAVVITDRQTGKSRGYGFVTMADRAAAERACKDPNPIIDGRKANVNLAYLGAKPRSLQTGFAIGVQQLHPTLIQRTYGLTPHYIYPPAIVQPSVVIPAAPVPSLSSPYIEYTPASPAYAQYPPATYDQYPYAASPATAASFVGYSYPAAVPQALSAAAPAGTTFVQYQAPQLQPDRMQ | binding result [2]: binds
3 |  | B1 | binding result (GST-HuR (1–326)): binds
4 | binds | GST-HuR (Δ95-244) (natural protein, UniProt Q15717 1-326, looked up) MSNGYEDHMAEDCRGDIGRTNLIVNYLPQNMTQDELRSLFSSIGEVESAKLIRDKVAGHSLGYGFVNYVTAKDAERAINTLNGLRLQSKTIKVSCIFIYNLGQDADEGILWQMFGPFGAVTNVKVIRDFNTNKCKGFGFVTMTNYEEAAMAIASLNGYRLGDKILQVSFKTNKSHK | 
5 | binds | GST-HuR (183–326) (domain or fragment, UniProt Q15717 183-326, looked up) FAANPNQNKNVALLSQLYHSPARRFGGPVHHQAQRFRFSPMGVDHMSGLSGVNVPGNASSGWCIFIYNLGQDADEGILWQMFGPFGAVTNVKVIRDFNTNKCKGFGFVTMTNYEEAAMAIASLNGYRLGDKILQVSFKTNKSHK | 
